Reference: patent US20230031980A1 (SHANGHAI NINTH PEOPLE S HOSPITAL SHANGHAI JIAO TONG …, published 2023)

B1: SAGE1I3BD (INTS3-binding domain of SAGE1, residues 818-904) (other)
chain: AMAKKINDDIKYQLMKEVRRFGQNYERIFILLEEVQGSMKVKRQFVEFTIKEAARFKKVVLIQQLEKALKEIDSHCHLRKVKHMRKR
notes: Expressed in E. coli with a His-SUMO or GST tag; also called SAGE1818-904; small C-terminal region of SAGE1
B2: SAGE1mut (R872A, F873A, K874A, M832A, F838A and Q840A) (other, not shown: small tags and cut ends)
chain: MQASPLQTSQPTPPEELHAAAYVFTNDGQQMRSDEVNLVATGHQSKKKHSRKSKRHSSSKRRKSMSSWLDKQEDAAVTHSICEERINNGQPVADNVLSTAPPWPDATIAHNIREERMENGQSRTDKVLSTAPPQLVHMAAAGIPSMSTRDLHSTVTHNIREERMENGQPQPDNVLSTGPTGLINMAATPIPAMSARDLYATVTHNVCEQKMENVQPAPDNVLLTLRPRRINMTDTGISPMSTRDPYATITYNVPEEKMEKGQPQPDNILSTASTGLINVAGAGTPAISTNGLYSTVPHNVCEEKMENDQPQPNNVLSTVQPVIIYLTATGIPGMNTRDQYATITHNVCEERVVNNQPLPSNALSTVLPGLAYLATADMPAMSTRDQHATIIHNLREEKKDNSQPTPDNVLSAVTPELINLAGAGIPPMSTRDQYATVNHHVHEARMENGQRKQDNVLSNVLSGLINMAGASIPAMSSRDLYATITHSVREEKMESGKPQTDKVISNDAPQLGHMAAGGIPSMSTKDLYATVTQNVHEERMENNQPQPSYDLSTVLPGLTYLTVAGIPAMSTRDQYATVTHNVHEEKIKNGQAASDNVFSTVPPAFINMAATGVSSMSTRDQYAAVTHNIREEKINNSQPAPGNILSTAPPWLRHMAAAGISSTITRDLYVTATHSVHEEKMTNGQQAPDNSLSTVPPGCINLSGAGISCRSTRDLYATVIHDIQEEEMENDQTPPDGFLSNSDSPELINMTGHCMPPNALDSFSHDFTSLSKDELLYKPDSNEFAVGTKNYSVSAGDPPVTVMSLVETVPNTPQISPAMAKKINDDIKYQLAKEVRRAGANYERIFILLEEVQGSMKVKRQFVEFTIKEAAAAAKVVLIQQLEKALKEIDSHCHLRKVKHMRKR
notes: Derived from the WT SAGE1 plasmid by site-directed mutagenesis; also called mutant SAGE1; Mutant SAGE1
B3: SAGE1ΔI3BD (deletion mutant of SAGE1 lacking the I3BD domain) (other)
chain: MQASPLQTSQPTPPEELHAAAYVFTNDGQQMRSDEVNLVATGHQSKKKHSRKSKRHSSSKRRKSMSSWLDKQEDAAVTHSICEERINNGQPVADNVLSTAPPWPDATIAHNIREERMENGQSRTDKVLSTAPPQLVHMAAAGIPSMSTRDLHSTVTHNIREERMENGQPQPDNVLSTGPTGLINMAATPIPAMSARDLYATVTHNVCEQKMENVQPAPDNVLLTLRPRRINMTDTGISPMSTRDPYATITYNVPEEKMEKGQPQPDNILSTASTGLINVAGAGTPAISTNGLYSTVPHNVCEEKMENDQPQPNNVLSTVQPVIIYLTATGIPGMNTRDQYATITHNVCEERVVNNQPLPSNALSTVLPGLAYLATADMPAMSTRDQHATIIHNLREEKKDNSQPTPDNVLSAVTPELINLAGAGIPPMSTRDQYATVNHHVHEARMENGQRKQDNVLSNVLSGLINMAGASIPAMSSRDLYATITHSVREEKMESGKPQTDKVISNDAPQLGHMAAGGIPSMSTKDLYATVTQNVHEERMENNQPQPSYDLSTVLPGLTYLTVAGIPAMSTRDQYATVTHNVHEEKIKNGQAASDNVFSTVPPAFINMAATGVSSMSTRDQYAAVTHNIREEKINNSQPAPGNILSTAPPWLRHMAAAGISSTITRDLYVTATHSVHEEKMTNGQQAPDNSLSTVPPGCINLSGAGISCRSTRDLYATVIHDIQEEEMENDQTPPDGFLSNSDSPELINMTGHCMPPNALDSFSHDFTSLSKDELLYKPDSNEFAVGTKNYSVSAGDPPVTVMSLVETVPNTPQISP
notes: also called SAGE1DI3BD

Tests used:
[1] = target: T1, INTS3CTD (C-terminal domain of INTS3, residues 572-978) (human, UniProt Q68E01 573-979); experiment: ITC (MicroCal iTC200, 16 °C, single-site model, two independent experiments)
T1 construct: also called INTS3CTD dimer
Protocol: The equilibrium dissociation constant of the SAGE1I3BD-INTS3CTD interaction was determined using a MicroCal iTC200 calorimeter (Malvern). The binding enthalpy was measured at 16° C. in 25 mM Tris-HCl pH 8.0, 150 mM NaCl and 5 mM MgCl2. Two independent experiments were performed. ITC data were subsequently analyzed and fitted using Origin 7 software (OriginLab).
All statistical tests of experimental results were performed using the GraphPad Prism 7 unless noted. The statistical significance was calculated via unpaired two-tailed Student's t test. The dissociation constants (Kd) in ITC experiments were calculated using the Origin 7 software as mean±standard error from two independent experiments with a single site-specific binding model. The statistical analysis of in vivo experiments data was performed using nonparametric Mann-Whitney test. Results were represented as mean±standard deviation unless noted and p<0.05 was considered statistically significant.

His-INTS3-Strep = target: T2, His-INTS3-Strep (human, UniProt Q68E01 2-1043); experiment: co-IP
T2 construct: also called INTS3 (co-IP construct)
Protocol: After 48 hours, cells were lysed in IP buffer containing 50 mM Tris-HCl pH 7.5, 150 mM NaCl, 0.1% Triton-X100, 1 mM EDTA and 1×Roche protease inhibitor. The supernatants were incubated overnight with mouse anti-His monoclonal antibody (Proteintech #66005-1-Ig), or rabbit anti-FLAG polyclonal antibody (Proteintech #20543-1-AP).
Then, protein A/G agarose beads (Millipore, #[…]02) were added and rotated for 2 more hours. The immunoprecipitated complexes were subjected to SDS-PAGE, followed by Western blot and/or MS analyses.

T2 sequence (Q68E01 2-1043): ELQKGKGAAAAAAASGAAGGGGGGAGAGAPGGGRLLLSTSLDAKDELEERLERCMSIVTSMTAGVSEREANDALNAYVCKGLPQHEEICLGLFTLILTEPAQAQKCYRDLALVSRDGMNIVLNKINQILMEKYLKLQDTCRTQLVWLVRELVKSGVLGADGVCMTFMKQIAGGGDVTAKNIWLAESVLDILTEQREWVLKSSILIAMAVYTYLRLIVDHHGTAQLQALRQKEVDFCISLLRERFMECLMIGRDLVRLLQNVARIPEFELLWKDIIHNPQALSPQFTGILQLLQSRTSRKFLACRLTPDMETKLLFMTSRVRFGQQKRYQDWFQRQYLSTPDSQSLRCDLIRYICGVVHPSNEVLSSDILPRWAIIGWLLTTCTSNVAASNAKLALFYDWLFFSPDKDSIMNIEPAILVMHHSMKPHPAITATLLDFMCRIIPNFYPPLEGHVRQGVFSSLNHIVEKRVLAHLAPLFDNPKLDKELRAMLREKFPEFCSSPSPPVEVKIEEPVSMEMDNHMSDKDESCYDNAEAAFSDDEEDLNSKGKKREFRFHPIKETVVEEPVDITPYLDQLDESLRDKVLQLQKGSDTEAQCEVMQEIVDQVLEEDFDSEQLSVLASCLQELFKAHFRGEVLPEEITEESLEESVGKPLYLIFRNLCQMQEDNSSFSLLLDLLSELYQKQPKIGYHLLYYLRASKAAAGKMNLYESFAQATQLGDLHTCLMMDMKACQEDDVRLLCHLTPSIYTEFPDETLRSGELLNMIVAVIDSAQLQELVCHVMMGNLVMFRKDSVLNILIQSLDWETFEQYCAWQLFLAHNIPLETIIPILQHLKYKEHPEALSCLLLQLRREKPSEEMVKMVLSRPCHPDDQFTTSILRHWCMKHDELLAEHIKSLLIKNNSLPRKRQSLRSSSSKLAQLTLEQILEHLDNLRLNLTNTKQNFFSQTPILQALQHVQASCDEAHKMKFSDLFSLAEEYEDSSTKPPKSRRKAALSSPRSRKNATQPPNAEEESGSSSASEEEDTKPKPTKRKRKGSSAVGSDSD
T1 sequence (Q68E01 573-979 limits assumed): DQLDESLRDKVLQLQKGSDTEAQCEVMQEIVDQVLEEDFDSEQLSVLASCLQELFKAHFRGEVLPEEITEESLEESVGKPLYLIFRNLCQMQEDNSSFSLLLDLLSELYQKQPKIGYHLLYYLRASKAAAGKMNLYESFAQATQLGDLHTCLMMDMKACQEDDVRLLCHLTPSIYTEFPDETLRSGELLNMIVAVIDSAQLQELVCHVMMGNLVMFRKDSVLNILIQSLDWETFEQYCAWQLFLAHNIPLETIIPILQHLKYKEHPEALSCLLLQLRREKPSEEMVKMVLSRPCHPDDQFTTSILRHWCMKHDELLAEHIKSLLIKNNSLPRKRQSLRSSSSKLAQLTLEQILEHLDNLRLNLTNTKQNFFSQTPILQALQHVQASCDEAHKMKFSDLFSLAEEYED

Row | Binder | Kd [1] | binding result (His-INTS3-Strep)
1 | B1 | ~39 nM | –
2 | B2 | – | no binding
3 | B3 | – | no binding
